Data: patent US20220411483A1 (Chugai, published 2022)
Where a chain is given by its changes, count along the chain named.

T1: human FcγRIIa R type extracellular domain with C-terminal His tag (human, UniProt P12318 34-217)
T1 construct: extracellular domain; also called FcgRIIaR
T1 sequence (looked up): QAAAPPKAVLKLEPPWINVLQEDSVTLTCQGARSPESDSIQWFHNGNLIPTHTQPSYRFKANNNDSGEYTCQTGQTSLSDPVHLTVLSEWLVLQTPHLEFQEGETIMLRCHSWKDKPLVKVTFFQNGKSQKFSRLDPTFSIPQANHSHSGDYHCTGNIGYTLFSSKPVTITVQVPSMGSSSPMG

T2: human FcγRIIb extracellular domain with C-terminal His tag (human, UniProt P31994 43-217)
T2 construct: extracellular domain; also called FcgRIIb
T2 sequence (looked up): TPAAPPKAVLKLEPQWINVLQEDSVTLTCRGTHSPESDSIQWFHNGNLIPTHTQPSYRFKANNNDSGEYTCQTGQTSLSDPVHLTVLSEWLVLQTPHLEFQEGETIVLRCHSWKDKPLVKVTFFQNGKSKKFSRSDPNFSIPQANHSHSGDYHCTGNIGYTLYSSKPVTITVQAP

T3: FcgRIIb (human, UniProt P31994 43-217)
T3 construct: extracellular domain; also called FcγRIIb
T3 sequence (looked up): T2 sequence (looked up)

T4: FcgRIIaR (human, UniProt P12318 34-217)
T4 construct: extracellular domain; also called FcγRIIa R type; FcγRIIa (R type)
T4 sequence (looked up): T1 sequence (looked up)

T5: human FcγRIIa H type extracellular domain with C-terminal His tag (human, UniProt P12318 34-217)
T5 construct: extracellular domain; also called FcgRIIaH
T5 sequence (looked up): T1 sequence (looked up) with R134H

B1: IL6R-P784/IL6R-L (antibody, human IgG1, kappa)
heavy: QVQLQESGPGLVKPSETLSLTCAVSGHSISHDHAWSWVRQPPGEGLEWIGFISYSGITNYNPSLQGRVTISRDNSKNTLYLQMNSLRAEDTAVYYCARSLARTTAMDYWGEGTLVTVSSASTKGPSVFPLAPSSKSTSGGTAALGCLVKDYFPEPVTVSWNSGALTSGVHTFPAVLQSSGLYSLSSVVTVPSSSLGTQTYICNVNHKPSNTKVDKKVEPKSCDKTHTCPPCPAPDLLGDDSVFLFPPKPKDTLMISRTPEVTCVVVDVSHEDPEVKFNWYVDGVEVHNAKTKPREEQYNSTYRVVSVLTVLHQDWLNGKEYKCKVSNKGLPSSIEKTISKAKGQPREPQVYTLPPSRDELTKNQVSLTCLVKGFYPSDIAVEWESNGQPENNYKTTPPVLDSDGSFFLYSKLTVDKSRWQQGNVFSCSVMHEALHNHYTQKSLSLSP
light: not shown
B2: IL6R-P606/IL6R-L (antibody, human IgG1, kappa)
heavy: B1 heavy with D239G, S241K, V266I, S269A, H270E, P273G, G329A, S332A, S333P
light: not shown
B3: IL6R-P634/IL6R-L (antibody, human IgG1, kappa)
heavy: B1 heavy with D239G, V266I, D267V, S269A, H270E, P273G, G329A, S332A, S333P
light: not shown
B4: IL6R-P609/IL6R-L (antibody, human IgG1, kappa)
heavy: B1 heavy with L236A, D239G, V266I, S269A, H270E, P273G, G329A, S332A, S333P
light: not shown
B5: IL6R-P638/IL6R-L (antibody, human IgG1, kappa)
heavy: B1 heavy with L236H, V266I, S269A, H270E, P273G, Y298D, G329A, S332R, S333P, P398M
light: not shown
B6: IL6R-P642/IL6R-L (antibody, human IgG1, kappa)
heavy: B1 heavy with G238Q, V266I, S269A, H270E, P273G, Y298D, G329A, S332R, S333P, P398M
light: not shown
B7: IL6R-P633/IL6R-L (antibody, human IgG1, kappa)
heavy: B1 heavy with D239G, V266I, D267S, S269A, H270E, P273G, G329A, S332A, S333P
light: not shown
B8: IL6R-P646/IL6R-L (antibody, human IgG1, kappa)
heavy: B1 heavy with V266I, D267N, S269A, H270E, P273G, Y298D, G329A, S332R, S333P, P398M
light: not shown
B9: IL6R-P635/IL6R-L (antibody, human IgG1, kappa)
heavy: B1 heavy with D239G, V266I, S269K, H270E, P273G, G329A, S332A, S333P
light: not shown
B10: IL6R-P644/IL6R-L (antibody, human IgG1, kappa)
heavy: B1 heavy with D239K, V266I, S269A, H270E, P273G, Y298D, G329A, S332R, S333P, P398M
light: not shown
B11: IL6R-P617/IL6R-L (antibody, human IgG1, kappa)
heavy: QVQLQESGPGLVKPSETLSLTCAVSGHSISHDHAWSWVRQPPGEGLEWIGFISYSGITNYNPSLQGRVTISRDNSKNTLYLQMNSLRAEDTAVYYCARSLARTTAMDYWGEGTLVTVSSASTKGPSVFPLAPSSKSTSGGTAALGCLVKDYFPEPVTVSWNSGALTSGVHTFPAVLQSSGLYSLSSVVTVPSSSLGTQTYICNVNHKPSNTKVDKKVEPKSCDKTHTCPPCPAPDAAGDDSVFLFPPKPKDTLMISRTPEVTCVVIDVAEEDGEVKFNWYVDGVEVHNAKTKPREEQDNSTYRVVSVLTVLHQDWLNGKEYKCKVSNKALPRPIEKTISKAKGQPREPQVYTLPPSRDELTKNQVSLTCLVKGFYPSDIAVEWESNGQPENNYKTTPMVLDSDGSFFLYSKLTVDKSRWQQGNVFSCSVMHEALHNHYTQKSLSLSP
light: not shown
B12: IL6R-P640/IL6R-L (antibody, human IgG1, kappa)
heavy: B11 heavy with A236K, A237L
light: not shown
B13: IL6R-P648/IL6R-L (antibody, human IgG1, kappa)
heavy: B11 heavy with A236L, A237L, D267S
light: not shown
B14: IL6R-P632/IL6R-L (antibody, human IgG1, kappa)
heavy: B11 heavy with A236L, A237L, D239G, D267R, D298Y, R332A, M398P
light: not shown
B15: IL6R-P645/IL6R-L (antibody, human IgG1, kappa)
heavy: B11 heavy with A236L, A237L, D267K
light: not shown
B16: IL6R-P607/IL6R-L (antibody, human IgG1, kappa)
heavy: B11 heavy with A236L, A237L, S241K
light: not shown
B17: IL6R-P641/IL6R-L (antibody, human IgG1, kappa)
heavy: B11 heavy with A236R, A237L
light: not shown
B18: IL6R-P643/IL6R-L (antibody, human IgG1, kappa)
heavy: B11 heavy with A236L, A237L, D239R
light: not shown
B19: IL6R-P614/IL6R-L (antibody, human IgG1, kappa)
heavy: B11 heavy with A236L
light: not shown
B20: IL6R-P627/IL6R-L (antibody, human IgG1, kappa)
heavy: B11 heavy with A236L, A237L, G238Q, D239G, D298Y, R332A, M398P
light: not shown
B21: IL6R-P613/IL6R-L (antibody, human IgG1, kappa)
heavy: B11 heavy with A236L, D239G, D298Y, R332A, M398P
light: not shown
B22: IL6R-P630/IL6R-L (antibody, human IgG1, kappa)
heavy: B11 heavy with A236L, A237L, D239G, D267K, D298Y, R332A, M398P
light: not shown
B23: IL6R-P611/IL6R-L (antibody, human IgG1, kappa)
heavy: B11 heavy with A237L
light: not shown
B24: IL6R-P624/IL6R-L (antibody, human IgG1, kappa)
heavy: B11 heavy with A236N, A237L, D239G, D298Y, R332A, M398P
light: not shown
B25: IL6R-P616/IL6R-L (antibody, human IgG1, kappa)
heavy: B11 heavy with D239G, D298Y, R332A, M398P
light: not shown
B26: IL6R-P623/IL6R-L (antibody, human IgG1, kappa)
heavy: B11 heavy with A236H, A237L, D239G, D298Y, R332A, M398P
light: not shown
B27: IL6R-P637/IL6R-L (antibody, human IgG1, kappa)
heavy: B11 heavy with A236L, A237L, D239G, A269Y, D298Y, R332A, M398P
light: not shown
B28: IL6R-P647/IL6R-L (antibody, human IgG1, kappa)
heavy: B11 heavy with A236L, A237L, D267R
light: not shown
B29: IL6R-P628/IL6R-L (antibody, human IgG1, kappa)
heavy: B11 heavy with A236L, A237L, D239R, D298Y, R332A, M398P
light: not shown
B30: IL6R-P639/IL6R-L (antibody, human IgG1, kappa)
heavy: B11 heavy with A236N, A237L
light: not shown

target: T1, human FcγRIIa R type extracellular …; test: SPR, antibody captured, FcgR analyte

Binder | Kd [µM]
B1 | 21

target: T2, human FcγRIIb extracellular domain with …; test: SPR, antibody captured, FcgR analyte

Binder | Kd [µM]
B1 | 2.2

target: T6, human FcγRIa extracellular domain with C-terminal His tag (human, UniProt P12314 16-292); test: SPR, antibody captured, FcgR analyte
T6 construct: Whole entry named; also called FcgRIa
T6 sequence (P12314 16-292): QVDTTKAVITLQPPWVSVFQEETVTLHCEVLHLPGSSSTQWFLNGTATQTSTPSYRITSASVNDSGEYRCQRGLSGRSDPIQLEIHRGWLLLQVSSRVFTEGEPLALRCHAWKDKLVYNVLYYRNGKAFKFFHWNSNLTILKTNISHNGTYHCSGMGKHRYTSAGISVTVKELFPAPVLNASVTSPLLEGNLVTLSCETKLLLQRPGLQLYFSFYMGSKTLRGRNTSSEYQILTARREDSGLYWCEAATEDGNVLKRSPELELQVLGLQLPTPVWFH

Binder | Kd [µM]
B1 | 0.088

target: T3, FcgRIIb; test: SPR, amount bound per captured antibody

Binder | Relative FcgRIIb-binding Activity [IL6R-G1d/IL6R-L=100]
B2 | 7.7
B3 | 6.5
B4 | 178
B5 | 176
B6 | 175
B7 | 56.4
B8 | 175
B9 | 71.9
B10 | 171
B11 | 158
B12 | 178
B13 | 152
B14 | 8
B15 | 13.7
B16 | 21.8
B17 | 170
B18 | 178
B19 | 176
B20 | 138
B21 | 120
B22 | 7.1
B23 | 183
B24 | 173
B25 | 89.2
B26 | 152
B27 | 55.5
B28 | 15.2
B29 | 176
B30 | 184

target: T4, FcgRIIaR; test: SPR, amount bound per captured antibody

Binder | Relative FcgRIIaR-binding Activity [IL6R-G1d/IL6R-L=100]
B2 | 4.8
B3 | 2.8
B4 | 82.6
B5 | 78.3
B6 | 103
B7 | 15.3
B8 | 72.5
B9 | 6.4
B10 | 34
B11 | 49.2
B12 | 75.1
B13 | 40.3
B14 | 4.1
B15 | 5.2
B16 | 6.1
B17 | 61.5
B18 | 58.7
B19 | 69.5
B20 | 48.5
B21 | 61.2
B22 | 4.1
B23 | 107
B24 | 67.1
B25 | 41.8
B26 | 44.7
B28 | 5.6
B29 | 48.1
B30 | 109

target: T1, human FcγRIIa R type extracellular …; test: SPR, KD of IL6R-G1d/IL6R-L divided by KD of variant

Binder | Relative FcgRIIaR-binding Activity
B1 | 0.05

target: T2, human FcγRIIb extracellular domain with …; test: as above

Binder | Relative FcgRIIb-binding Activity
B1 | 1

target: T7, human FcγRIIIa V type extracellular domain with C-terminal His tag (human, UniProt P08637 17-208); test: as above
T7 construct: extracellular domain; also called FcgRIIIaV
T7 sequence (P08637 17-208 F176V): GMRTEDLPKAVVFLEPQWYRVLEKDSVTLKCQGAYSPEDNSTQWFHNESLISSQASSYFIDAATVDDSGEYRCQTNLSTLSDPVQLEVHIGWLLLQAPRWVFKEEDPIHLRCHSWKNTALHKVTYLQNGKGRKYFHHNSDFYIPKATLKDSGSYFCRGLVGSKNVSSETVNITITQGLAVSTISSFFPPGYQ

Binder | Relative FcgRIIIaV-binding Activity
B1 | 0.01

target: T5, human FcγRIIa H type extracellular …; test: as above

Binder | Relative FcgRIIaH-binding Activity
B1 | 0.007

target: T6, human FcγRIa extracellular domain with …; test: as above

Binder | Relative FcgRIa-binding Activity
B1 | 0.004
